Experimental findings from US20140256613A1 are described below.

Experiment [1] deals with full-length human TLR4 expressed as fusion protein with GAL4 (pTLR4) (human). Nature of the experiment: flow cytometry of pSPA + pTLR4 transfected HEK293 cells stained with isotype control antibody [A)(iii].
Experiment [2] shares this target. Briefly: flow cytometry of pSPA-mutant + pTLR4 transfected HEK293 cells stained with isotype control antibody [A)(iii].
Experiment [3] has the same target. Briefly: cell-based or functional assay.

Turning to (IC) (antibody), the results for the % positive cells in region R in experiment [1] and in experiment [2] were 1.06% and 1.65%, respectively.

As to “SPA-mutant lacking SPA4 peptide region, expressed as fusion protein with VP16 (pSPA-mutant) (from UniProt Q8IWL2 21-248)”, the LPS-induced NF-κB luciferase reporter activity in co-transfected HEK293 cells in experiment [3] turned out to be 44 RLU.
